Measurements published in US6740739B1, “Substitutional variants of APO-2 ligand” (Genentech, Inc., priority 1998, dated 2004).

Tests used:
[1] = tested on: HCT116 human colon carcinoma cells; assay: Tumor volume in nude mice, osmotic mini-pump infusion; type: in vivo; conditions: E. coli-expressed Apo-2 ligand (aa 91-281/92-281) 10 mg/kg each day by intraperitoneal osmotic mini-pump; over 3 days; vehicle no change; FIG. 15
Procedure: (§1) In the experiment, the nude mice were injected subcutaneously with HCT116 human colon carcinoma cells (ATCC CCL 247) (1×10^6 cells) on each side of the animal. The tumors were then allowed to grow to reach approximately 1 cm diameter (approximately 10 days). On Day 0, the tumor volume was measured with calipers. Volume was calculated as π/6×ab^2, where a=length and b=width. Then osmotic mini-pumps (available from Alza Corp., Model 1003) were implanted intraperitoncally into each animal. The mini-pumps were loaded with either (1) control vehicle (20 mM Tris pH 7.5, 8% Trehalose. 0.01% Tween-20) or (2) Apo-2 ligand. Five animals in each group received either the control vehicle or Apo-2 ligand. The mini-pumps were calibrated to deliver each day 10 mg/kg Apo-2 ligand (10 mg/ml×2 μl/hour) or 2 μl/hour control vehicle.
(§2) On Day 3, the tumor volume was again measured, and the animals were sacrificed. […] There was no change in tumor volume in the vehicle group, but a marked reduction in tumor size occurred in mice infused with the Apo-2L. The treatment with the Apo-2L shrunk the tumors by about 50% over 3 days.

[2] = Examination of infused animals for gross toxicity; type: in vivo, nude mice; conditions: E. coli-expressed Apo-2 ligand 10 mg/kg each day by mini-pump; Day 3
Procedure: as §1, §2

[3] = tested on: ME-180; assay: Cell viability by crystal violet staining; type: cell-based, human
Procedure: (§3) The following human tumor cell lines were assayed: A549 (lung carcinoma, ATCC CCL 185); HCT116 (colon carcinoma, ATCC CCL 247); SW480 (colon adenocarcinoma, ATCC CCL 228); MDA231 (breast adenocarcinoma, ATCC HTB 26); HeLa (cervical carcinoma, ATCC CCL 22); ME-180 (cervical carcinoma, ATCC HTB 33); T24 (bladder carcinoma. ATCC HTB 4); SK-N-AS (neuroblastoma, White et al., Proc. Natl. Acad. Sci., 92:5520-5524 (1995)). The cells were plated at 2.5×10^5 cells/ml in 96 well plates and incubated overnight. The cells were cultured in the presence of 2-fold dilutions of Apo-2 ligand (ranging from 100 ng/ml to 0.01 ng/ml). In some of the cultures, a chemotherapeuticagent was also added for 24 hours-cyclohexamide (“CHX”) (50 μg/ml; Sigma Chemicals), Doxorubicin (10-100 μg/ml; Pharmacia), or 5-FU (6 mg/ml; Roche). After 24 hours of incubation, the cells were stained with 0.5% crystal-violetin 20% methanol. Cell viability was determined by eluting the dye from the stained cells with 0.1M sodium citrate (0.1M citric acid in 50% methanol), and measuring absorbance at 540 nm.

[4] = tested on: T24; assay: Cell viability by crystal violet staining; type: cell-based, human
Procedure: as §3

[5] = tested on: SW480; type: cell-based, human
Procedure: as §3

[6] = tested on: HCT116; type: cell-based, human
Procedure: as §3

[7] = tested on: A549; type: cell-based, human
Procedure: as §3

[8] = tested on: MDA231; type: cell-based, human
Procedure: as §3

[9] = tested on: Raji cells; assay: Apoptosis by FACS (PI / FITC-annexin V); type: cell-based, human; conditions: Apo-2 ligand 3 μg/ml, 24 hours, control 35.9
Procedure: (§4) The effects of the Apo-2 ligand on the 9D cells, as well as on Raji cells (human Burkitt's lymphoma B cell line, ATCC CCL 86) and Jurkat cells (human acute T cell leukemia cell line, ATCC TIB 152) were further analyzed by FACS. The FACS analysis was conducted, using established criteria for apoptotic cell death, namely, the relation of fluorescence staining of the cells with two markers: (a) propidium iodide (“PI”) dye, which stains apoptotic but not live cells, and (b) a fluorescent derivative of the protein, annexin V, which binds to the exposed phosphatidylserine found on the surface of apoptotic cells, but not on live cells [Darzynkiewicz et al., Methods in Cell Biol., 41:15-38 (1994); Fadok et al., J. Immunol., 148:2207-2216 (1992); Koopman et al., Blood, 84:1415-1420 (1994)].
(§5) The 9D cells (FIG. 2B), Raji cells (FIG. 2C), and Jurkat cells (FIG. 2D) were incubated (1×10^6 cells/well) for 24 hours with a media control (left panels), Apo-2 ligand (3 μg/ml, prepared as described in Example 3) (center panels), or anti-Apo-1 ligand antibody, CH11 (1 μg/ml) (right panels). The cells were then washed, stained with PI and with fluorescein thiocyanate (FITC)-conjugatedannexin V (purchased from Brand Applications) and analyzed by flow cytometry. […]

[10] = tested on: Jurkat cells; assay: Apoptosis by FACS (PI / FITC-annexin V); type: cell-based, human; conditions: Apo-2 ligand 3 μg/ml, 24 hours, control 5.9
Procedure: as §4, §5

B1: Apo-2L: purified soluble His10-tagged human Apo-2 ligand, residues 114-281, from baculovirus-infected Sf9 cells (Example 3); used in Examples 4-14 (protein)
chain: MGHHHHHHHHHHSSGHIDDDDKHMVRERGPQRVAAHITGTRGRSNTLSSPNSKNEKALGRKINSWESSRSGHSFLSNLHLRNGELVIHEKGFYYIYSQTYFRFQEEIKENTKNDKQMVQYIYKYTSYPDPILLMKSARNSCWSKDAEYGLYSIYQGGIFELKENDRIFVSVTNEHLIDMDHEASFFGAFLVG
shrinkage of tumors (change in tumor volume) [1]: about 50% | gross evidence of toxicity [2]: did not reveal any gross evidence of toxicity | Apo-2L sensitivity ENHANCED BY Dox ([3]; ME180, Doxorubicin 10-100 μg/ml, 24 hours): yes | Apo-2L sensitivity ENHANCED BY CHX ([3]; ME180, cyclohexamide 50 μg/ml, 24 hours): yes | Apo-2L SENSITIVITY ([3]; ME180 cervical carcinoma, p53 WT, 24 h): ++ (>70% death after 24 h with 100 ng/ml Apo-2L) | Apo-2L sensitivity ENHANCED BY Dox ([4]; T24, Doxorubicin 10-100 μg/ml, 24 hours): yes | Apo-2L sensitivity ENHANCED BY CHX ([4]; T24, cyclohexamide 50 μg/ml, 24 hours): yes | Apo-2L SENSITIVITY ([4]; T24 bladder carcinoma, p53 mut, 24 h): +++ (>70% death after 24 h with 10 ng/ml Apo-2L) | Apo-2L sensitivity ENHANCED BY 5-FU [5]: yes | Apo-2L sensitivity ENHANCED BY Dox ([5]; SW480, Doxorubicin 10-100 μg/ml, 24 hours): yes | Apo-2L sensitivity ENHANCED BY CHX ([5]; SW480, cyclohexamide 50 μg/ml, 24 hours): yes | Apo-2L SENSITIVITY ([5]; SW480 colon carcinoma, p53 mut, 24 h): ++ (>70% death after 24 h with 100 ng/ml Apo-2L) | Apo-2L sensitivity ENHANCED BY 5-FU [6]: yes | Apo-2L sensitivity ENHANCED BY Dox ([6]; HCT116, Doxorubicin 10-100 μg/ml, 24 hours): yes | Apo-2L sensitivity ENHANCED BY CHX ([6]; HCT116, cyclohexamide 50 μg/ml, 24 hours): yes | Apo-2L SENSITIVITY ([6]; HCT116 colon carcinoma, p53 mut, 24 h): ++ (>70% death after 24 h with 100 ng/ml Apo-2L) | Apo-2L sensitivity ENHANCED BY 5-FU [7]: yes | Apo-2L sensitivity ENHANCED BY Dox ([7]; A549, Doxorubicin 10-100 μg/ml, 24 hours): yes | Apo-2L sensitivity ENHANCED BY CHX ([7]; A549, cyclohexamide 50 μg/ml, 24 hours): yes | Apo-2L SENSITIVITY ([7]; A549 lung carcinoma, p53 WT, 24 h): ++ (>70% death after 24 h with 100 ng/ml Apo-2L) | Apo-2L sensitivity ENHANCED BY 5-FU [8]: yes | Apo-2L sensitivity ENHANCED BY Dox ([8]; MDA231, Doxorubicin 10-100 μg/ml, 24 hours): yes | Apo-2L sensitivity ENHANCED BY CHX ([8]; MDA231, cyclohexamide 50 μg/ml, 24 hours): yes | Apo-2L SENSITIVITY ([8]; MDA231 breast carcinoma, p53 mut, 24 h): ++ (>70% death after 24 h with 100 ng/ml Apo-2L) | % apoptotic cells [9]: 73.4% | % apoptotic cells [10]: 77.0%
